Measurements taken from the supplement of paper PMC7125110.
± gives the standard error. Fewer inactive variants are shown than the library holds.

B1: glmS ribozyme (parent)
chain: AUAAAAGCGCCAGAACUACAGAAAUGUAGUUGACGAGGAGGAGGUUUAUCGAAUUUUCGGCGGAUGCCUCCAAA

Columns and labels:
Conditions in all cases: with glucosamine-6-phosphate
glucosamine-6-phosphate [1] = variants of: B1; assay: self-cleavage kobs at 40 uM GlcN6P; higher = faster cleavage; RNA array
Method in brief: (§1)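 Weighted Michaelis–Menten fits across concentrations supplied kcat and KM, based on kobs from one- or two-exponential decay fits to normalised per-tile medians. The data came from barcoded ribozyme variants transcribed in situ by E. coli RNA polymerase on sequenced MiSeq chips and tracked at 37 °C by a hybridised Cy3 probe. Glucosamine-6-phosphate (40 μM to 10 mM) in HEPES/KCl/Mg(OAc)2 buffer was flowed in.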

glucosamine-6-phosphate [2] = variants of: B1; assay: self-cleavage kobs at 640 uM GlcN6P; higher = faster cleavage; RNA array
Method in brief: as §1

glucosamine-6-phosphate [3] = variants of: B1; assay: self-cleavage kobs at 2500 uM GlcN6P; higher = faster cleavage; RNA array
Method in brief: as §1

glucosamine-6-phosphate [4] = variants of: B1; assay: self-cleavage kobs at 10000 uM GlcN6P; higher = faster cleavage; RNA array
Method in brief: as §1

glucosamine-6-phosphate [5] = variants of: B1; assay: self-cleavage kobs at 160 uM GlcN6P; higher = faster cleavage; RNA array
Method in brief: as §1

| Variant | self-cleavage kobs at 40 uM GlcN6P (glucosamine-6-phosphate [1]) [s⁻¹] | self-cleavage kobs at 640 uM GlcN6P (glucosamine-6-phosphate [2]) [s⁻¹] | self-cleavage kobs at 2500 uM GlcN6P (glucosamine-6-phosphate [3]) [s⁻¹] | self-cleavage kobs at 10000 uM GlcN6P (glucosamine-6-phosphate [4]) [s⁻¹] | self-cleavage kobs at 160 uM GlcN6P (glucosamine-6-phosphate [5]) [s⁻¹] |
| --- | --- | --- | --- | --- | --- |
| A14C G29U C50G | 0.000119 ± 3.7e-05 | – | – | – | – |
| U47C A53U U56A G59C | < 1e-05 | < 1e-05 | < 1e-05 | < 1e-05 | – |
| G51C A52G | < 1e-05 | – | < 1e-05 | < 1e-05 | < 1e-05 |
| G40A G41C A48C C68A C70U | < 1e-05 | – | – | < 1e-05 | – |
| A36G G38C U55A | < 1e-05 | – | – | < 1e-05 | – |
| C8A G62C | < 1e-05 | < 1e-05 | < 1e-05 | < 1e-05 | – |
| G35A G44U U49A | < 1e-05 | – | – | – | – |
| C8G A14G U55G | < 1e-05 | – | < 1e-05 | < 1e-05 | – |
| G29U U30C | < 1e-05 | < 1e-05 | < 1e-05 | – | – |
| C10U U46A U49A U65C C68G | < 1e-05 | – | – | < 1e-05 | – |
| U55A U56C | 0.00013 ± 2.5e-05 | 0.000919 ± 0.00017 | 0.00258 ± 0.00063 | 0.00781 ± 0.0012 | 0.000191 ± 3e-05 |
| C50A A64G C71U | < 1e-05 | – | – | – | – |
| C34U G37C G51A C68A | < 1e-05 | – | – | – | – |
| U45A C70G | 0.000107 ± 4.1e-05 | 0.000198 ± 7.9e-05 | 0.00053 ± 0.00019 | 0.000826 ± 0.00032 | 0.000105 ± 3.6e-05 |
| A1C U56G | 0.000433 ± 9.4e-05 | – | – | 0.0185 ± 0.0058 | – |
| A24C A48C G62U G63U C70G | < 1e-05 | – | – | < 1e-05 | – |
| C8A U30A A48G | < 1e-05 | – | – | < 1e-05 | – |
| A6G G13U | < 1e-05 | < 1e-05 | – | – | < 1e-05 |
| C8G U55A | < 1e-05 | < 1e-05 | < 1e-05 | < 1e-05 | – |
| C10A C11U U69G | 4.43e-05 ± 2.1e-05 | – | – | 5.88e-05 ± 1.5e-05 | – |
| A53U U54G C71A | 9.49e-05 ± 2.8e-05 | – | – | 0.00478 ± 0.0013 | – |
| C8G A39G G59C | < 1e-05 | – | – | < 1e-05 | – |
| U47A U55G | 0.000473 ± 8.1e-05 | 0.00869 ± 0.0018 | 0.0105 ± 0.0022 | 0.0152 ± 0.0031 | 0.000805 ± 0.00018 |
| A53G U69C | 0.000897 ± 0.00014 | 0.00235 ± 0.00048 | 0.002 ± 0.00044 | 0.00674 ± 0.0018 | 0.000469 ± 8.4e-05 |
| G38C G41U G60C | < 1e-05 | – | – | – | – |

| Variant | self-cleavage kobs at 40 uM GlcN6P (glucosamine-6-phosphate [1]) [s⁻¹] | self-cleavage kobs at 640 uM GlcN6P (glucosamine-6-phosphate [2]) [s⁻¹] | self-cleavage kobs at 2500 uM GlcN6P (glucosamine-6-phosphate [3]) [s⁻¹] | self-cleavage kobs at 10000 uM GlcN6P (glucosamine-6-phosphate [4]) [s⁻¹] | self-cleavage kobs at 160 uM GlcN6P (glucosamine-6-phosphate [5]) [s⁻¹] |
| --- | --- | --- | --- | --- | --- |
| G7U G59U | < 1e-05 | – | < 1e-05 | < 1e-05 | < 1e-05 |
| A15U G29U G60C | < 1e-05 | – | – | – | – |
| C10G A14C C70U | < 1e-05 | – | – | – | – |
| G37U A52U U57A | < 1e-05 | – | – | – | – |
| A15U C16G C58U G59U | < 1e-05 | < 1e-05 | < 1e-05 | – | – |
| G37C G41U | < 1e-05 | < 1e-05 | < 1e-05 | < 1e-05 | < 1e-05 |
| U47A U57G | < 1e-05 | – | – | 4.75e-05 ± 8.7e-06 | – |
| G29U U45G G59C C67U | < 1e-05 | – | – | < 1e-05 | – |
| G38A C50U A53G G62U | < 1e-05 | – | – | – | – |
| G63C | < 1e-05 | < 1e-05 | < 1e-05 | < 1e-05 | < 1e-05 |
| A14C C68U C71U | < 1e-05 | – | – | – | – |
| A14U G63U A64U | < 1e-05 | – | – | – | – |
| G7C G29C | < 1e-05 | < 1e-05 | < 1e-05 | < 1e-05 | – |
| C34A G38U U69A | < 1e-05 | – | – | – | – |
| A42U U49G U57A C61G | < 1e-05 | < 1e-05 | < 1e-05 | < 1e-05 | – |
| C16A G29A A36U U65A C71U | < 1e-05 | < 1e-05 | – | – | – |
| A6U A39C U47C A64U | < 1e-05 | – | – | – | – |
| C34G U47G C68G | 0.000102 ± 2.7e-05 | 8.76e-05 ± 2.5e-05 | 7.01e-05 ± 2.4e-05 | 7.34e-05 ± 1.5e-05 | 0.000631 ± 0.00031 |
| C16A C34A | < 1e-05 | < 1e-05 | < 1e-05 | < 1e-05 | < 1e-05 |
| U30G A42U G43U A48U G59U | < 1e-05 | – | – | – | – |
| G7U C10G A15U C34A G40U C58G G60C G63A | < 1e-05 | < 1e-05 | – | < 1e-05 | – |
| G38A G41C G43U | < 1e-05 | – | – | – | – |
| A42U C61U | < 1e-05 | < 1e-05 | < 1e-05 | < 1e-05 | < 1e-05 |
| A14G U47G C58G C71U | 4.07e-05 ± 2e-05 | – | – | 9.43e-05 ± 1.6e-05 | – |
| A39C C50G U55C | < 1e-05 | – | – | < 1e-05 | – |
